# Measurements reported in the nanobody polyreactivity screen of Harvey et al. (2022).
# Test: yeast display, Sf9 membrane polyspecificity reagent, FACS + sequencing; frameworks hold sequencing errors
# In short: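 A nanobody's polyreactivity label depends on the gate it was sorted from. Yeast display cells were stained with 10% biotinylated, detergent-solubilized Sf9 membrane reagent for 1 hour at 4 °C, enriched on streptavidin microbeads and sorted by FACS. The low and high (top ~1%) gates were set on anti-HA fluorescence for expression and streptavidin fluorescence for reagent binding.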
row,Sequence,polyreactivity (PSR sort gate)
1,QVQLVESGGGLVQAGGSLRLSCAASGSNFRVNAMGWYRQAPGKERELVAASSSGGSTHYADSVKGRFTISRDNAKNTFYLQMISLKPEDTAVYYCAVRYALGPYLWYYWGQGTQVTVSS,high polyreactivity
2,QVQLVESGGGLVQAGGSLRLSCAASGSNFRVYAMGWYSQAAGKERELVAAISRSGSITYYADSVKGRFTISRDNAKNTVYLQMNSLKPEDTAVYYCAARTYCRFTASTYYYWGQGTQVTVSS,high polyreactivity
3,QVQLVESGGGLVQAGGSLRLSCAASGSNFSAYMGWYRQAPGKERELVADISSTGTTYYADSVKGRFTISRDNAKNTVYLQMNSLKPEDTAVYYCNADYFLQQEVTFDYWGQGSQVTVSS,high polyreactivity
4,QVQLVESGGGLVQAGGSLRLSCAASGSNFSGNAMGWYRQAPGKERELVAAISRRGGRTYYADSVKGRFTISRDNAKNTVYLQMNSLIPEDTAVYYCNADSVRYDYSAYDYEYWGQGTQVNVSS,high polyreactivity
5,QVQLVESGGGLVQAGGSLRLSCAASGSNFSRYAMGWYTQAPGKERELVAAISKSGGSTYYADSVKGRFTISRDNAKNTVYLEMNSLIPEDTAVYYCNARDSPVQRRAEPYGYWGQGTQVTVSS,high polyreactivity
6,QVQLVESGGGLVQAGGSLRLSCAASGSNFSYYTMGWYRRATGKERELVAGITWSGGGTSYADSVKGRFTISRDNAKNTVYVQMNSLKPEDTAVYYCAAVDIGRYYRLDYWGQGTQVTVSS,low polyreactivity
7,QVQLVESGGGLVQAGGSLRLSCAASGSNFTYYAMGWYRQAPGKEREFVAAINRSGGSTYYADSVKGRFTISRDNAKNTVYLQMNSLKPEDTAVYYCAARRGSGALRYNYWGQGTQVTVSS,high polyreactivity
8,QVQLVESGGGLVQAGGSLRLSCAASGSNFTYYAMGWYRQAPGKERELVAAISYSGGTTYYADSVKGRFTISRDNAKNTVYLQMNSLKPEDTAVYYCNVDADYESQWLSVGYDYWGQGTQVTVSS,low polyreactivity
9,QVQLVESGGGLVQAGGSLRLSCAASGSNFVGYAMGWYRQAPGKERELVAAISWSGDSTYYADSVKGRFTISRDNAKITVYLQMNSLKPEDTAVYYCAVDYAEIGPRREVEYDYWGHGTQVTVSS,low polyreactivity
10,QVQLVESGGGLVQAGGSLRLSCAASGSNFVTYAMGWSRQAPGKERELVAAISSSGTSTYYADSVKGRFTISRDNAKNTVYLQMNSLKPEDTAVYYCAAYLRGYDYGYWGQGTQVTVSS,high polyreactivity
11,QVQLVESGGGLVQAGGSLRLSCAASGSNFVTYAMGWYRQAPGKERELVAAISYSGGSTYADSVKGRFTISRDNAKNTVYLQMNILKPEDTAVYYCNTDTSVDVRFDYWGQGTQVTVSS,low polyreactivity
12,QVQLVESGGGLVQAGGSLRLSCAASGSNFVVYAMGWYRQAPGKERELVAAITGSGGRTYYADSVKGRFTISRDNAKNTVYLQMNSLKPEDTAVYYCATDSRGGIFDYWGQGTQVTVSS,low polyreactivity
13,QVQLVESGGGLVQAGGSLRLSCAASGSNFYHYAMGWYRQAPGKERELVAAITRSGGSTYYADSVKGRFTISRDNAKNTVYLQLNSLKPEDTAVYYCAKDPDSYNFLTSNWYDYWGQGTQVTVSS,low polyreactivity
14,QVQLVESGGGLVQAGGSLRLSCAASGSNFYSYVMGWYRQAPGKERELVAAISRNGQSTYYADSVKGRFTISRDNAKNTVYLQMNSLKPEDTAVYYCAARSRDKYDYWGQGTQVTVSS,high polyreactivity
15,QVQLVESGGGLVQAGGSLRLSCAASGSNISDNEMGWYRPAPGKESELVAAINWGGTNTYYADSVKGRYTISRDNAKNTVYLQINRLKPEDTAVYYCNADIPRRPIRHYLYDYWGQGTQVTVSS,low polyreactivity
16,QVQLVESGGGLVQAGGSLRLSCAASGSNLGNNDMGWYRQAPGKERQLVAAISRSDVSTFYADSVKGRFTISRDNAKNTVYLQMNSLKPEDTAVSSCAARTGRGDRTRRYYYWGQGTQVTVSS,high polyreactivity
17,QVQLVESGGGLVQAGGSLRLSCAASGSNVAVYVMGWYRQAPGKERELVAAISISAARTYYADSVKGRFTISRDNAKNTVYLQMNSLKPEDTAVYYGAARLVFRNDSWGQGTQVTVSS,high polyreactivity
18,QVQLVESGGGLVQAGGSLRLSCAASGSPFRHYALGWYRQAPGKERELVAVISWGGTSTYYADSGKGRFTISRDNAKNTVYLQMNSLKPEDSAVYYCNADSNWYYQWNYYGLYDYWGQGTQVTVSS,low polyreactivity
19,QVQLVESGGGLVQAGGSLRLSCAASGSRNAMGWYRQEPGKERQFVAAITWNGGSTYYADSVKGRFTITRDNAKNTVYLQMNSLKPEDTAVYYCAADVVFPFSVGYDYWGQGTQVTVSS,low polyreactivity
20,QVQLVESGGGLVQAGGSLRLSCAASGSSFEGYVLGWYRQAPGKERELVATISFSGGSTYYADSVMGRFTISRDNAKNTVYLQMNSLKPVETAVYFSGASVRYKFYSVVSVRSEYWGQGTQVTVST,low polyreactivity
21,QVQLVESGGGLVQAGGSLRLSCAASGSSFGGYARGWYRQAPGKERELVAAISNGDRTNYADSVKGRFTISRDNAKNTVYLQLNSQKPEYTAVYDCATQPLTWSSYRWDWRAQFDHWGQGTQVTVSS,low polyreactivity
22,QVQLVESGGGLVQAGGSLRLSCAASGSSFIINAMGWYRKAPGKERELVAAITSGGSTSYADSVKGRFTISRDNAKYTVYLQMNSLNPEDTAVYYCATDHDIGYNFNRYDYWGLGTQVTVSS,low polyreactivity

row,Sequence,polyreactivity (PSR sort gate)
1,QVQLVESGGGLVQAGGSLRLSCAASGSSFISNAKGWYRQAPGKERELVAAINWTTGRTRYADSVQGRFTISRDNAKNSVYLQMNSLKAEDTAVYYCAKYSRKWYGAYYFWGQGTQVNVSS,high polyreactivity
2,QVQLVESGGGLVQAGGSLRLSCAASGSSFNRYAMGWYRQAPGKERELVAGISYRGGTYYADSVKGRFTISRDNAKNTVYLQMNSLKPEDTAVYYCNVVRRGTTSYDDYDYWGQGTQVTVSS,high polyreactivity
3,QVQLVESGGGLVQAGGSLRLSCAASGSSFRFYAMGWYRQAPGKERELVATIRYSTGTTYYADSVKGRFTISRDNAKNTVYLQMNSLKPEDTAVYYCAAGYFIYSWRIRFDYWGQGTQVTVSS,high polyreactivity
4,QVQLVESGGGLVQAGGSLRLSCAASGSSFRYTMGWYRQAHGKQRELVATITYSDGSTYYADSVKGRFTISRDNAKNTVYFQMNSLKPEDTAVYYCARTTPTGRQYRRYDYWGQGSQVTVSS,low polyreactivity
5,QVQLVESGGGLVQAGGSLRLSCAASGSSFSHYAMGWYRQAPGKVRELVAGISVRGGSTYYADSVKGRFTISRDNAKNTVDLQMNSLKPEDTAVYYCAIGYAKYYRTYYYWGQGTQVTVSS,high polyreactivity
6,QVQLVESGGGLVQAGGSLRLSCAASGSSFSPYAMGWYRQAPGKERELVAAINSGSSTNYADSVKGRFTISRDNAKNTVYLQMNSLQPEDTAVYYCAADGQLPPRGILASWEFDYWGQGTQVTVSS,low polyreactivity
7,QVQLVESGGGLVQAGGSLRLSCAASGSSFVYNVMGWYRPAPGKERELVAAIRWRGGSTYADSVKGRFTISRDNAKNTVYLQMNSLKPEDTAVYYCAAGIPRYWYAGHYDYWGQGTQVTVSS,low polyreactivity
8,QVQLVESGGGLVQAGGSLRLSCAASGSSFYYYAMGWYRQAPGKERELVAAITSGDTTNYADSVKGRFTISRDNAKNTVYLQMNSLIPEDTAVYYCAVDLNTTAFYPEAATYLDEYWGQGTQVTVSS,low polyreactivity
9,QVQLVESGGGLVQAGGSLRLSCAASGSSLDSYTMGWSRQAPGKERELVAAITSDGGSTYYADSVKGRFTISRDNAKNTVYLQMNSLKPEDTAVDYCAKLSRYYGFWYTPDFDYWGQGTQVTVSS,high polyreactivity
10,QVQLVESGGGLVQAGGSLRLSCAASGSSVYSYAMGWYRQAPGKERELVAAISWRGGSTYYADSVKGRFTISRDNAKNTVYLQMNSLKPEDTAVYYCAAYYYTGPTTVESDYWGQGTQVTVSS,high polyreactivity
11,QVQLVESGGGLVQAGGSLRLSCAASGSTAENVMGWYRQAPGKERELVAAISSRGGSTYYADSVKGRFTISRDNAKNTVYLQMNSLKPEDTAVYYCAAEYVSHFSGDRYDYWGQGTQVTVSS,low polyreactivity
12,QVQLVESGGGLVQAGGSLRLSCAASGSTARYAMGWNRQAPGKERELVAAITGRTGRTNYADSVKGRFTISRDNAKITVYVQMNSLKPEDTAVYYCAKRAWRAVRWTYGYWGQGSQVTVSS,high polyreactivity
13,QVQLVESGGGLVQAGGSLRLSCAASGSTCASYAMGWYRQAPGKERELVAAITDSGGSTYYADSVKGRFTISRDNAKNTVYLQMNSLKPEDTAVYYCAAYGAYFSYHDYEYWGHGTQVTVSS,low polyreactivity
14,QVQLVESGGGLVQAGGSLRLSCAASGSTCDYYAMGWYRQAPGKEREIVAAITTGGDTTNYADSVKGRFTISRDNAKNTVYLQMNSLKPEVTAVYYCARDTGYDLIVLPDDSWGQGTQVTVSS,low polyreactivity
15,QVQLVESGGGLVQAGGSLRLSCAASGSTCILNAMGWYRQAPGKERELVATISSSDTSTYYADSVKGRFTISRDNAKNTVYLQMNCLKPEDTAVYYCNADYYTTSYLQGVYHYGVEYDFWGQGTQVTVSS,low polyreactivity
16,QVQLVESGGGLVQAGGSLRLSCAASGSTCPYYAMGWYRQAPRKEMELVASIRKRGGGTSYADSVKGRFTISRDNAKNTVYLQMNSLKPEDTALYYCAVRVYQLRYTGYDYWGQCTQVTVSS,high polyreactivity
17,QVQLVESGGGLVQAGGSLRLSCAASGSTCVYYPMGWYRQAPGKERELVAAIRGRDGNTYYADSVKGRFTISRDNAQNTVYLQMNSLKPEDSAVYSSAATRRNQLYGVAYRYDYWGQGTQVTVSS,high polyreactivity
18,QVQLVESGGGLVQAGGSLRLSCAASGSTFAANAMGWDRQAPGKERELVAAITSGGGSTYYADSVKGRFTISRDNAKNTVYLQMNSLKPEDTAVYYCAALQSHGVDYDYWGQGSQVTVSS,low polyreactivity
19,QVQLVESGGGLVQAGGSLRLSCAASGSTFAANAMGWYRPAPGKERELDAAITSSGGSTYYADSVKGRFTISRDNAKNTVYLQMISLKPEDTAVYYCNKDIERYVRIYDSWGQGTQVTVSS,low polyreactivity
20,QVQLVESGGGLVQAGGSLRLSCAASGSTFAANAMGWYRQAPGKERELVAALTRSGGSTYYADSVKGRFTISRDNAKNTVYLQMNSLKPEDTAVYYCASKYHTRGVQHGYWGQGTQVTVSS,low polyreactivity
21,QVQLVESGGGLVQAGGSLRLSCAASGSTFAANTMGWYRQAPGKERELVAAITVRGGSTYYADSVKGRFTISRDNAKNTVYLQMNSLKPEDTAGYYGAAERPPYGYLVVGYVSTQYYYWGQGTQVTVSS,low polyreactivity
